In the supplement of paper PMC5998384:

Tests used:
HeLa Kyoto [1] = assay: melting temperature (median over replicates), in situ; higher = more thermally stable
HeLa Kyoto [2] = assay: solubility change mitosis vs G1/S (difference of NP-40 vs SDS log2 ratios) (log2 ratio difference); higher = more soluble in mitosis
HeLa Kyoto [3] = assay: thermal stability score vs G1/S (z-score of summed log2 fold changes over temperatures); higher = more thermally stable than in G1/S
HeLa Kyoto [4] = assay: solubility in G1/S (NP-40 vs SDS abundance) (log2 ratio); higher = more soluble; conditions: cell cycle stage: G1/S
[5] = cell cycle stage: early G1 (4.5 h after nocodazole release)
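Throughout, for melting temperature (median over replicates), in situ: HeLa Kyoto cells synchronized by double thymidine or nocodazole block, proteins quantified by TMT10plex mass spectrometry, three independent biological replicates.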
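Throughout, for solubility change mitosis vs G1/S (difference of NP-40 vs SDS log2 ratios): synchronized HeLa Kyoto cells (double thymidine block for G1/S, nocodazole release for mitosis), protein amounts in NP-40 versus SDS lysates quantified by mass spectrometry, three biological replicates.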
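Throughout, for solubility in G1/S (NP-40 vs SDS abundance): HeLa Kyoto cells arrested at G1/S by double thymidine block, proteins quantified by TMT10plex mass spectrometry in mild NP-40 versus SDS extracts, three biological replicates.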
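Throughout, for thermal stability score vs G1/S (z-score of summed log2 fold changes over temperatures): synchronized HeLa Kyoto cells, proteins quantified by TMT10plex mass spectrometry, three biological replicates, mitosis taken 0.5 h after nocodazole release, G1/S directly after double thymidine block.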

Sequence of REEP5 (chain, as listed by the source): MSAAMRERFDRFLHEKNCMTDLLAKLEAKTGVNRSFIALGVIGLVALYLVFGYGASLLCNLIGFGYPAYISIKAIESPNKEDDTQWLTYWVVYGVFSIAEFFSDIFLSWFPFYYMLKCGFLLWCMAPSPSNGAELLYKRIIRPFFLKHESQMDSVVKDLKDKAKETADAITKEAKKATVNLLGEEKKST

Substance	melting temperature (HeLa Kyoto [1]; cell cycle stage: G1/S) [°C]	melting temperature (HeLa Kyoto [1]; cell cycle stage: mitosis) [°C]	solubility change mitosis (log2) (HeLa Kyoto [2])	thermal stability score (HeLa Kyoto [3]; [5])	thermal stability score (HeLa Kyoto [3]; cell cycle stage: mitosis)	solubility in G1/S (log2) (HeLa Kyoto [4])
UBR4	51.3	50.4	-0.163	-0.403	0.0628	-0.243
MYAVYKQAHPPTGLEFSMYCNFFNNSERNLVVAGTSQLYVYRLNRDAEALTKNDRSTEGKAHREKLELAASFSFFGNVMSMASVQLAGAKRDALLLSFKDAKLSVVEYDPGTHDLKTLSLHYFEEPELRDGFVQNVHTPRVRVDPDGRCAAMLVYGTRLVVLPFRRESLAEEHEGLVGEGQRSSFLPSYIIDVRALDEKLLNIIDLQFLHGYYEPTLLILFEPNQTWPGRVAVRQDTCSIVAISLNITQKVHPVIWSLTSLPFDCTQALAVPKPIGGVVVFAVNSLLYLNQSVPPYGVALNSLTTGTTAFPLRTQEGVRITLDCAQATFISYDKMVISLKGGEIYVLTLITDGMRSVRAFHFDKAAASVLTTSMVTMEPGYLFLGSRLGNSLLLKYTEKLQEPPASAVREAADKEEPPSKKKRVDATAGWSAAGKSVPQDEVDEIEVYGSEAQSGTQLATYSFEVCDSILNIGPCANAAVGEPAFLSEEFQNSPEPDLEIVVCSGHGKNGALSVLQKSIRPQVVTTFELPGCYDMWTVIAPVRKEEEDNPKGEGTEQEPSTTPEADDDGRRHGFLILSREDSTMILQTGQEIMELDTSGFATQGPTVFAGNIGDNRYIVQVSPLGIRLLEGVNQLHFIPVDLGAPIVQCAVADPYVVIMSAEGHVTMFLLKSDSYGGRHHRLALHKPPLHHQSKVITLCLYRDLSGMFTTESRLGGARDELGGRSGPEAEGLGSETSPTVDDEEEMLYGDSGSLFSPSKEEARRSSQPPADRDPAPFRAEPTHWCLLVRENGTMEIYQLPDWRLVFLVKNFPVGQRVLVDSSFGQPTTQGEARREEATRQGELPLVKEVLLVALGSRQSRPYLLVHVDQELLIYEAFPHDSQLGQGNLKVRFKKVPHNINFREKKPKPSKKKAEGGGAEEGAGARGRVARFRYFEDIYGYSGVFICGPSPHWLLVTGRGALRLHPMAIDGPVDSFAPFHNVNCPRGFLYFNRQGELRISVLPAYLSYDAPWPVRKIPLRCTAHYVAYHVESKVYAVATSTNTPCARIPRMTGEEKEFETIERDERYIHPQQEAFSIQLISPVSWEAIPNARIELQEWEHVTCMKTVSLRSEETVSGLKGYVAAGTCLMQGEEVTCRGRILIMDVIEVVPEPGQPLTKNKFKVLYEKEQKGPVTALCHCNGHLVSAIGQKIFLWSLRASELTGMAFIDTQLYIHQMISVKNFILAADVMKSISLLRYQEESKTLSLVSRDAKPLEVYSVDFMVDNAQLGFLVSDRDRNLMVYMYLPEAKESFGGMRLLRRADFHVGAHVNTFWRTPCRGATEGLSKKSVVWENKHITWFATLDGGIGLLLPMQEKTYRRLLMLQNALTTMLPHHAGLNPRAFRMLHVDRRTLQNAVRNVLDGELLNRYLYLSTMERSELAKKIGTTPDIILDDLLETDRVTAHF [CPSF1]	50.3	50.6	0.129	-0.361	0.307	-0.464
MYTFVVRDENSSVYAEVSRLLLATGHWKRLRRDNPRFNLMLGERNRLPFGRLGHEPGLVQLVNYYRGADKLCRKASLVKLIKTSPELAESCTWFPESYVIYPTNLKTPVAPAQNGIQPPISNSRTDEREFFLASYNRKKEDGEGNVWIAKSSAGAKGEGILISSEASELLDFIDNQGQVHVIQKYLEHPLLLEPGHRKFDIRSWVLVDHQYNIYLYREGVLRTASEPYHVDNFQDKTCHLTNHCIQKEYSKNYGKYEEGNEMFFKEFNQYLTSALNITLESSILLQIKHIIRNCLLSVEPAISTKHLPYQSFQLFGFDFMVDEELKVWLIEVNGAPACAQKLYAELCQGIVDIAISSVFPPPDVEQPQTQPAAFIKL [TTL]	53.9	53.4	-0.197	0.614	-0.119	0.146
MCDLRRPAAGGMMDLAYVCEWEKWSKSTHCPSVPLACAWSCRNLIAFTMDLRSDDQDLTRMIHILDTEHPWDLHSIPSEHHEAITCLEWDQSGSRLLSADADGQIKCWSMADHLANSWESSVGSLVEGDPIVALSWLHNGVKLALHVEKSGASSFGEKFSRVKFSPSLTLFGGKPMEGWIAVTVSGLVTVSLLKPSGQVLTSTESLCRLRGRVALADIAFTGGGNIVVATADGSSASPVQFYKVCVSVVSEKCRIDTEILPSLFMRCTTDLNRKDKFPAITHLKFLARDMSEQVLLCASSQTSSIVECWSLRKEGLPVNNIFQQISPVVGDKQPTILKWRILSATNDLDRVSAVALPKLPISLTNTDLKVASDTQFYPGLGLALAFHDGSVHIVHRLSLQTMAVFYSSAAPRPVDEPAMKRPRTAGPAVHLKAMQLSWTSLALVGIDSHGKLSVLRLSPSMGHPLEVGLALRHLLFLLEYCMVTGYDWWDILLHVQPSMVQSLVEKLHEEYTRQTAALQQVLSTRILAMKASLCKLSPCTVTRVCDYHTKLFLIAISSTLKSLLRPHFLNTPDKSPGDRLTEICTKITDVDIDKVMINLKTEEFVLDMNTLQALQQLLQWVGDFVLYLLASLPNQGSLLRPGHSFLRDGTSLGMLRELMVVIRIWGLLKPSCLPVYTATSDTQDSMSLLFRLLTKLWICCRDEGPASEPDEALVDECCLLPSQLLIPSLDWLPASDGLVSRLQPKQPLRLQFGRAPTLPGSAATLQLDGLARAPGQPKIDHLRRLHLGACPTEECKACTRCGCVTMLKSPNRTTAVKQWEQRWIKNCLAVEGRGPDACVTSRASEEAPAFVQLGPQSTHHSPRTPRSLDHLHPEDRP [MED16]	52.2	52	-0.185	0.307	0.64	-0.121
REEP5	55.4	57.6	-0.114	-0.45	-0.719	-0.148
IMPDH1	51.1	51.6	-0.176	5.12	3.19	0.0289
MAKISSPTETERCIESLIAVFQKYAGKDGYNYTLSKTEFLSFMNTELAAFTKNQKDPGVLDRMMKKLDTNSDGQLDFSEFLNLIGGLAMACHDSFLKAVPSQKRT [S100A11]	53.8	52.6	0.343	-4.03	-4.13	-1.04
MSGIKKQKTENQQKSTNVVYQAHHVSRNKRGQVVGTRGGFRGCTVWLTGLSGAGKTTISFALEEYLVSHAIPCYSLDGDNVRHGLNRNLGFSPGDREENIRRIAEVAKLFADAGLVCITSFISPFAKDRENARKIHESAGLPFFEIFVDAPLNICESRDVKGLYKRARAGEIKGFTGIDSDYEKPETPERVLKTNLSTVSDCVHQVVELLQEQNIVPYTIIKDIHELFVPENKLDHVRAEAETLPSLSITKLDLQWVQVLSEGWATPLKGFMREKEYLQVMHFDTLLDDGVINMSIPIVLPVSAEDKTRLEGCSKFVLAHGGRRVAILRDAEFYEHRKEERCSRVWGTTCTKHPHIKMVMESGDWLVGGDLQVLEKIRWNDGLDQYRLTPLELKQKCKEMNADAVFAFQLRNPVHNGHALLMQDTRRRLLERGYKHPVLLLHPLGGWTKDDDVPLDWRMKQHAAVLEEGVLDPKSTIVAIFPSPMLYAGPTEVQWHCRSRMIAGANFYIVGRDPAGMPHPETKKDLYEPTHGGKVLSMAPGLTSVEIIPFRVAAYNKAKKAMDFYDPARHNEFDFISGTRMRKLAREGENPPDGFMAPKAWKVLTDYYRSLEKN [PAPSS2]	52.2	53.1	-0.108	2.13	3.19	-0.0222
ITPR1	49.8	50.2	-0.0166	0.726	1.96	-0.349
MADTQYILPNDIGVSSLDCREAFRLLSPTERLYAYHLSRAAWYGGLAVLLQTSPEAPYIYALLSRLFRAQDPDQLRQHALAEGLTEEEYQAFLVYAAGVYSNMGNYKSFGDTKFVPNLPKEKLERVILGSEAAQQHPEEVRGLWQTCGELMFSLEPRLRHLGLGKEGITTYFSGNCTMEDAKLAQDFLDSQNLSAYNTRLFKEVDGEGKPYYEVRLASVLGSEPSLDSEVTSKLKSYEFRGSPFQVTRGDYAPILQKVVEQLEKAKAYAANSHQGQMLAQYIESFTQGSIEAHKRGSRFWIQDKGPIVESYIGFIESYRDPFGSRGEFEGFVAVVNKAMSAKFERLVASAEQLLKELPWPPTFEKDKFLTPDFTSLDVLTFAGSGIPAGINIPNYDDLRQTEGFKNVSLGNVLAVAYATQREKLTFLEEDDKDLYILWKGPSFDVQVGLHELLGHGSGKLFVQDEKGAFNFDQETVINPETGEQIQSWYRSGETWDSKFSTIASSYEECRAESVGLYLCLHPQVLEIFGFEGADAEDVIYVNWLNMVRAGLLALEFYTPEAFNWRQAHMQARFVILRVLLEAGEGLVTITPTTGSDGRPDARVRLDRSKIRSVGKPALERFLRRLQVLKSTGDVAGGRALYEGYATVTDAPPECFLTLRDTVLLRKESRKLIVQPNTRLEGSDVQLLEYEASAAGLIRSFSERFPEDGPELEEILTQLATADARFWKGPSEAPSGQA [DPP3]	53.8	53	-0.14	-0.363	-1.69	0.153
